Test results published in the supplement of paper PMC9112550, “Optimization of the antimicrobial peptide Bac7 by deep mutational scanning” (BMC Biology, 2022).

The sequences below were run on Escherichia coli TOP10 (assay: shrunken log2 fold change of peptide-encoding DNA abundance (4.5 h post-induction vs induction); higher = less antimicrobial activity (less host growth inhibition)). Settings: time post-induction: 4.5 h; library: site-saturation at positions 5, 18, 19, 20.
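Also: peptides expressed intracellularly from a pBAD plasmid library in pooled LB shake-flask culture, induced with 0.3% L-arabinose, DNA abundance read by NGS, three biological replicates, DESeq2 with apeglm shrinkage.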

Row | Sequence | shrunken log2 fold change
1 | RRIRLRPPRLPRPRPRPRWAPRP | 0.145
2 | RRIRRRPPRLPRPRPRPNGHPRP | 0.193
3 | RRIRIRPPRLPRPRPRPFPHPRP | -0.174
4 | RRIRHRPPRLPRPRPRPLGAPRP | -0.0242
5 | RRIRIRPPRLPRPRPRPYQWPRP | -0.316
6 | RRIRQRPPRLPRPRPRPQCEPRP | -0.234
7 | RRIRCRPPRLPRPRPRPCFNPRP | 0.713
8 | RRIRPRPPRLPRPRPRPNPPPRP | 0.188
9 | RRIRGRPPRLPRPRPRPRFFPRP | 0.741
10 | RRIRLRPPRLPRPRPRPFTLPRP | -0.192
11 | RRIRNRPPRLPRPRPRPIGKPRP | -0.0902
12 | RRIRQRPPRLPRPRPRPNACPRP | -0.000684
13 | RRIRQRPPRLPRPRPRPPNPPRP | 0.109
14 | RRIRKRPPRLPRPRPRPLGPPRP | 0.749
15 | RRIRKRPPRLPRPRPRPHKGPRP | -0.0331
16 | RRIRLRPPRLPRPRPRPHKNPRP | -0.256
17 | RRIRCRPPRLPRPRPRPNSYPRP | -0.54
18 | RRIRIRPPRLPRPRPRPNWHPRP | -0.227
19 | RRIRDRPPRLPRPRPRPSLTPRP | 0.154
20 | RRIRNRPPRLPRPRPRPVHDPRP | 0.068
21 | RRIRVRPPRLPRPRPRPHGGPRP | -0.0243
22 | RRIRDRPPRLPRPRPRPHSKPRP | -0.456
23 | RRIRLRPPRLPRPRPRPAQNPRP | 0.57
24 | RRIRERPPRLPRPRPRPVTSPRP | -0.23
25 | RRIRPRPPRLPRPRPRPDPIPRP | 0.0782

Row | Sequence | shrunken log2 fold change
26 | RRIRFRPPRLPRPRPRPPFIPRP | -0.236
27 | RRIRKRPPRLPRPRPRPQGVPRP | -0.0162
28 | RRIRKRPPRLPRPRPRPCDTPRP | 0.015
29 | RRIRDRPPRLPRPRPRPKYHPRP | -0.412
30 | RRIRVRPPRLPRPRPRPDAIPRP | 0.286
31 | RRIRWRPPRLPRPRPRPTAPPRP | 0.481
32 | RRIRVRPPRLPRPRPRPPQHPRP | 0.186
33 | RRIRVRPPRLPRPRPRPPHLPRP | -0.0283
34 | RRIRRRPPRLPRPRPRPFFEPRP | 0.18
35 | RRIRERPPRLPRPRPRPQHEPRP | 0.199
36 | RRIRERPPRLPRPRPRPNQGPRP | -0.348
37 | RRIRTRPPRLPRPRPRPAKYPRP | -0.355
38 | RRIRFRPPRLPRPRPRPMSNPRP | 0.0556
39 | RRIRQRPPRLPRPRPRPTKLPRP | -0.0369
40 | RRIRWRPPRLPRPRPRPYHVPRP | -0.141
41 | RRIRFRPPRLPRPRPRPDHKPRP | -0.406
42 | RRIRIRPPRLPRPRPRPKFEPRP | -0.361
43 | RRIRGRPPRLPRPRPRPMMSPRP | 0.136
44 | RRIRWRPPRLPRPRPRPFFHPRP | -0.194
45 | RRIRWRPPRLPRPRPRPQEHPRP | 0.0218
46 | RRIRWRPPRLPRPRPRPWFQPRP | -0.125
47 | RRIRHRPPRLPRPRPRPGRAPRP | 0.49
48 | RRIRARPPRLPRPRPRPKWRPRP | 0.176
49 | RRIRFRPPRLPRPRPRPYFHPRP | -1.66
50 | RRIRDRPPRLPRPRPRPCYKPRP | 0.0316

Row | Sequence | shrunken log2 fold change
51 | RRIRWRPPRLPRPRPRPCKAPRP | -0.0863
52 | RRIRFRPPRLPRPRPRPLCAPRP | -0.0266
53 | RRIRARPPRLPRPRPRPLFNPRP | -0.064
54 | RRIRHRPPRLPRPRPRPLMSPRP | -0.196
55 | RRIRSRPPRLPRPRPRPNFDPRP | 0.221
56 | RRIRPRPPRLPRPRPRPWLFPRP | -0.0483
57 | RRIRYRPPRLPRPRPRPRHPPRP | -0.266
58 | RRIRVRPPRLPRPRPRPRKVPRP | -0.0445
59 | RRIRKRPPRLPRPRPRPDSIPRP | -0.0839
60 | RRIRNRPPRLPRPRPRPQRDPRP | 0.0103
61 | RRIRVRPPRLPRPRPRPQPQPRP | 0.302
62 | RRIRLRPPRLPRPRPRPGTVPRP | -0.0516
63 | RRIRWRPPRLPRPRPRPYQIPRP | 0.0326
64 | RRIRWRPPRLPRPRPRPDVPPRP | -0.177
65 | RRIRTRPPRLPRPRPRPAALPRP | 0.0806
66 | RRIRLRPPRLPRPRPRPHYKPRP | -0.525
67 | RRIRDRPPRLPRPRPRPLSYPRP | 0.194
68 | RRIRPRPPRLPRPRPRPHTNPRP | 0.401
69 | RRIRMRPPRLPRPRPRPGLDPRP | 2.44
70 | RRIRNRPPRLPRPRPRPMKPPRP | -0.00018
71 | RRIRRRPPRLPRPRPRPHLRPRP | 0.298
72 | RRIRARPPRLPRPRPRPVYGPRP | -0.235
73 | RRIRSRPPRLPRPRPRPDEKPRP | -0.0769
74 | RRIRFRPPRLPRPRPRPAKVPRP | 0.333
75 | RRIRCRPPRLPRPRPRPDGEPRP | 0.0622

Row | Sequence | shrunken log2 fold change
76 | RRIRTRPPRLPRPRPRPNLVPRP | -0.149
77 | RRIRQRPPRLPRPRPRPCNIPRP | -0.646
78 | RRIRFRPPRLPRPRPRPSQGPRP | -0.117
79 | RRIRSRPPRLPRPRPRPAGFPRP | 0.262
80 | RRIRHRPPRLPRPRPRPRYNPRP | -0.591
81 | RRIRERPPRLPRPRPRPLCFPRP | -0.313
82 | RRIRKRPPRLPRPRPRPCPAPRP | 0.17
83 | RRIRFRPPRLPRPRPRPYVCPRP | -0.301
84 | RRIRIRPPRLPRPRPRPDGSPRP | -0.189
85 | RRIRWRPPRLPRPRPRPLDIPRP | 1.52
86 | RRIRDRPPRLPRPRPRPTWAPRP | 0.168
87 | RRIRKRPPRLPRPRPRPELSPRP | 0.0277
88 | RRIRIRPPRLPRPRPRPKHHPRP | -0.366
89 | RRIRWRPPRLPRPRPRPYVYPRP | 0.0229
90 | RRIRIRPPRLPRPRPRPRKKPRP | 0.247
91 | RRIRVRPPRLPRPRPRPRDPPRP | 0.617
92 | RRIRSRPPRLPRPRPRPLPCPRP | -0.00277
93 | RRIRTRPPRLPRPRPRPDKFPRP | 0.116
94 | RRIRHRPPRLPRPRPRPRIVPRP | 0.00411
95 | RRIRKRPPRLPRPRPRPHKHPRP | -0.119
96 | RRIRCRPPRLPRPRPRPAAQPRP | 0.394
97 | RRIRARPPRLPRPRPRPDGLPRP | 0.292
98 | RRIRYRPPRLPRPRPRPDERPRP | 0.0108
99 | RRIRDRPPRLPRPRPRPASKPRP | -0.0758
100 | RRIRIRPPRLPRPRPRPSIFPRP | -0.764

Row | Sequence | shrunken log2 fold change
101 | RRIRRRPPRLPRPRPRPAGCPRP | 0.437
102 | RRIRKRPPRLPRPRPRPPWEPRP | 1.23
103 | RRIRSRPPRLPRPRPRPSYSPRP | 0.232
104 | RRIRSRPPRLPRPRPRPLGIPRP | -0.036
105 | RRIRYRPPRLPRPRPRPVDNPRP | -0.0156
106 | RRIRWRPPRLPRPRPRPKWKPRP | 0.401
107 | RRIRGRPPRLPRPRPRPNRQPRP | 0.167
108 | RRIRNRPPRLPRPRPRPATNPRP | -0.0513
109 | RRIRKRPPRLPRPRPRPYIAPRP | -0.293
110 | RRIRNRPPRLPRPRPRPVAFPRP | -0.119
111 | RRIRVRPPRLPRPRPRPHYDPRP | -0.379
112 | RRIRLRPPRLPRPRPRPVQWPRP | 0.288
113 | RRIRLRPPRLPRPRPRPDDNPRP | -0.138
114 | RRIRVRPPRLPRPRPRPISNPRP | -0.512
115 | RRIRPRPPRLPRPRPRPMDVPRP | -0.0123
116 | RRIRYRPPRLPRPRPRPGYIPRP | -0.0964
117 | RRIRVRPPRLPRPRPRPANSPRP | -0.117
118 | RRIRWRPPRLPRPRPRPPTAPRP | 0.876
119 | RRIRVRPPRLPRPRPRPIIAPRP | -0.195
120 | RRIRQRPPRLPRPRPRPRWFPRP | 0.0284
121 | RRIRQRPPRLPRPRPRPLPGPRP | 0.0661
122 | RRIRCRPPRLPRPRPRPHFNPRP | -0.589
123 | RRIRSRPPRLPRPRPRPYTAPRP | -0.752
124 | RRIRIRPPRLPRPRPRPVFDPRP | -0.371
125 | RRIRWRPPRLPRPRPRPFSVPRP | -0.159

Row | Sequence | shrunken log2 fold change
126 | RRIRHRPPRLPRPRPRPWVFPRP | 0.139
127 | RRIRYRPPRLPRPRPRPGEPPRP | -0.0235
128 | RRIRHRPPRLPRPRPRPWQNPRP | -0.169
129 | RRIRKRPPRLPRPRPRPRNWPRP | 0.95
130 | RRIRGRPPRLPRPRPRPTFSPRP | 0.162
131 | RRIRSRPPRLPRPRPRPGSCPRP | 0.0634
132 | RRIRWRPPRLPRPRPRPRDGPRP | 1.12
133 | RRIRLRPPRLPRPRPRPCEGPRP | -0.199
134 | RRIRTRPPRLPRPRPRPWLPPRP | -0.164
135 | RRIRSRPPRLPRPRPRPKDPPRP | 0.226
136 | RRIRIRPPRLPRPRPRPWNIPRP | -0.0297
137 | RRIRNRPPRLPRPRPRPCICPRP | -0.33
138 | RRIRMRPPRLPRPRPRPHRQPRP | 0.532
139 | RRIRTRPPRLPRPRPRPQCEPRP | -0.0143
140 | RRIRDRPPRLPRPRPRPPYCPRP | -0.0939
141 | RRIRGRPPRLPRPRPRPRCCPRP | 0.474
142 | RRIRIRPPRLPRPRPRPTQYPRP | -0.616
143 | RRIRCRPPRLPRPRPRPEAKPRP | 0.208
144 | RRIRLRPPRLPRPRPRPDTVPRP | -0.399
145 | RRIRARPPRLPRPRPRPFWEPRP | 0.269
146 | RRIRWRPPRLPRPRPRPCGFPRP | 0.395
147 | RRIRKRPPRLPRPRPRPWHYPRP | 0.0725
148 | RRIRHRPPRLPRPRPRPYFPPRP | -1.43
149 | RRIRLRPPRLPRPRPRPEDKPRP | -0.0384
150 | RRIRKRPPRLPRPRPRPEMIPRP | 0.0131
